In paper PMC6708749:

Key:
Test in all cases: SEC
[1] = biological target: ELIC-α1GABAAR chimera, Q242L mutant (Erwinia chrysanthemi | human)
[2] = biological target: ELIC-α1GABAAR chimera, Q242W mutant (Erwinia chrysanthemi | human)
[3] = biological target: ELIC-α1GABAAR chimera, W246L mutant (Erwinia chrysanthemi | human)
[4] = biological target: ELIC-α1GABAAR chimera, WT (Erwinia chrysanthemi | human)

With ELIC-α1GABAAR chimera, Q242L mutant as the substance, how does the stoichiometry N [1] read?
The stoichiometry N was 5.

How did the stoichiometry N [2] turn out when ELIC-α1GABAAR chimera, Q242W mutant was run?
Its stoichiometry N is 5.

For ELIC-α1GABAAR chimera, W246L mutant, which stoichiometry N [3] is on record?
Its stoichiometry N is 5.

For ELIC-α1GABAAR chimera, WT, which stoichiometry N [4] is on record?
Its stoichiometry N is 5.

Which stoichiometry N [4] does the source give for ELIC-β3GABAAR chimera here?
Its stoichiometry N is 5.
